# Assay: label from the status in PepcDB records
row,Sequence,protein production
1,MPDKFNMQSPPFNRLTAEQQHQLRSALDVAYFRQRDVLIDAQHPVTHLHILIKGTVEERSPDGKEVFAHYANDDLFDVRAMFEELSKHQYMALEDTLSYLLPKSIFLQLYEQNGEFAAYFDNNLAKRQELIEAAAQQKNIAEFILTKVDRSIYHPPFILSPEQPIHSVTQQLKERGIDAALVELHPSDPRLAHNHAHPYAIVTRTNMLHAVMLEGRPLDTPVGEIATFPVLHVDEGDFLFNAMVMMTRQRIKRVMVCLGNQAVGLLSLIQILSAFSTHSHVLTLAIARAASIDELALAANKQRELVESLMSRGVRTRFVMELIAAVNEQIIEKAFELVVPPALHDQCCLVVLGSEGRGEQILKTDQDNALIIQDGLEWHQCQPIMETLTHTLLQLGYPLCPGKVMVNNPKWVRSQSDWKRTLTDWVKAARPEQVMDIAIFADAHAVAGNRALLAPVKAHLQHLMAGQELILAEFTRPALNFSVPLTLFGNVKSSKQGIDIKQGGIFPIVHGVRALSLEHAIDANNTFDRIEALVKKRVLEQETGDNLSEAFKLFLKLRLAQQLGNQHSTNQLDFKQLDRTERDLLRHSLHVVKKFKQWLGYHYQIRD,failed
2,MTSPVQATPEPQPGLVARLSAEALGSMFVVVAAVGVGIFSNPGAAPLPAALATGLTVTAAMLAFGYVSGGHFNPAITLGNLIAGRIRAVAAVAYVAAQIIGSVVGAALMYFVVTTVPVLTDARAAFDVVAPGFGDHASAQTQMAGVLLVEVLGSALLVAVFLGATAGRRALPAMAPFAVGLAMAVLLQLGQVLGNLPFNPARATAQAFFSSPWAIEGLWLFWVAPLMGAALAGLAFRGFQGLSQAAVADTDHFHGGTDGINDAFDADDEPAEDSEVKEEAAAKADIAPSRAVPTVPVTDDARDFFDGKKGK,failed
3,EDGLFSVVLPFMSSFLLDPNAADPGYLKTRDYLTYNGVTTVADMNTGGTNWELEISALKRNLDTPESPIRVRLTPDVMKLAAALKSPEAAMTLVNQMKQHNTDNLVFNGGIKLFADGAMFSQAMQINAPGYIDGHKGEWITQPSSFVEFARSYWNAGYQIHVHTNGDGGAKMVLDTLQELENDKPRADHRFTVEHYGYADDGTSRRIAKLDAQVSANPFYLFDLGDRYAENGLGFDRAARIAPLGGLASRNVPVALHSDFPMAPAEPLFLAWTAMSRETLSGKVFSPSERLTLDQAIRAITIDAAYMIGMENE,failed
4,MPFERFVQTGRIAKASAGPLKGRLVAIVDVIDQNRVLVDGPLTGVPRQEYRLNNLHLTKYRIKFPYTAPTRIVRKAWTESDLKAQWKVSPWSVKAQNICKRSSLNDFDRFKLRYAKRQRNKLLTIAFNTLKKRTKADGTPRVLKKDRRERLRAEKAKGGKKAAAKK,failed
5,MSDILKFSVVIPVYNGSNTVTRAVDSCLKQTTLPWEIIIVNDCSKDNTLDVLIENYQGNNIVKIYSLPKNSGVSVARNLGWDKATGDFIAFLDADDVWHPSKLEVLNELKHGYKDVSCIAHKYTENSLPEEKKIMPKCKILKFRHFLIRNYFNTSCLAVCKCIGERFNETMRYTEDHDLCLRIANKMNIYYIDLPLTSLGRPQLSKGGLSGNQWAMRKGEMKLYFHACKLRWWLFPCLPLFFLFSIAKHLLKLGMRCMK,failed
6,MSIDWAALGSVFGVSLVVTVGLVGLFTLGIVGLTKKESAEGGSAALATTGAYACFAACAAAVAYGIYLIVA,failed
7,MLIKKIDLHKDPIRKLFFYYFIPLAFSMISLSTYSMIDGMFVGKKLGKEAIAAVNIAWPIFPGLIAYELLFGFGAASIVGYFLGQNKTHRARLVFSSVFYFVAISAFILSMALLPFSETIARFFGSNDALLSMSKRYIEIILMGAVFMVLHPLADVFVVNDKRPILAMVAMLIGSLANIFFNYLFIFVLKVGVQGSAIATVIGHAIGVLVLMQHFWRKKGQLYFIKRFSLSSVISSAKSGVPQSTAEFSASVMILLFNTAIMHTAGERFVSMYGIVMYNAIIFFTTLFAISQGIQPIASFSYGARNLERVKEVFVFGLKAAFCIGIVFYGAYYFLDEFLIKLYLQPSEQDPLFMQETKRAMNIYYVGYIFLGMTLLCAVFFQSIQRTKSSFIITLSHTLGFIVILLPILSHFYGINGVWVTYPIAQFLAFLVALGVTYYEIKKGVFTTYKEKNPIALKT,failed
8,MASFCNSWKRKHNEAIKLSEEIDGMILERSSLAETSSYARGHASYMRRKITILANGVQTLKNLLAESQGKSISAKEMSRCKDMVEDLRSKAYQMASALDMLKFSNIGSLLGQDDIMSRVIDMDNQEIVGFQRTTMKGKLKGVMHLKREALAMNMELGLQTRLIDRLDHHVDVSASDVEELQRSIDTGVCMTLLLSVVVVVFGLSEFVKFGRRRILG,failed
9,MKGLLPLAWFLACSVPAVQGGLLDLKSMIEKVTGKNALTNYGFYGCYCGWGGRGTPKDGTDWCCWAHDHCYGRLEEKGCNIRTQSYKYRFAWGVVTCEPGPFCHVNLCACDRKLVYCLKRNLRSYNPQYQYFPNILCS,failed
10,MSLDKGDKAPDFALPGKTGVVKLSDKTGSVVYLDFWASWCGPCRQSFPWMNQMQAKYKAKGFQVVAVNLDAKTGDAMKFLAQVPAEFTVAFDPKGQTPRLYGVKGMPTSFLIDRNGKVLLQHVGFRPADKEALEQQILAALGGNEGHHHHHH,not failed
11,MCVSSSIQTAILDWQCVDGIDIPVSRQFGDVYFSKDNGLLETRHVFLNGNNLTERLADLKPYQYFCVGETGFGTGLNILAVWQLWQQVRPDNHSHLHVISVEKFPLSKSDLERALRAWPELIILAEQLIEQYPFPIAGCHRLNFPDERFSLDLWLGDAHDVFPSIVKTHSVDAWFLDGFAPSCNPELWETQVLNQIVRLSDYGTTFASFSVAGILKRGLKAHGIHISRPRGFGHKREMLKAIWPFPDHESTTTVKGNQPSTQQHFAVIGAGIAGLHCAWSLAQRGHRVTLVDQSQPLSGASGNPLALLNPKLCPITQCHDHLMVLCWQYARRFYQNFEAFRLIQVNQLALKASDSLLNLAEQYPKDVLDAHSAQQSPLETQYDYLTLHYAGVISPQLFCNQVLQHPLIEFKQFKINQIIEIDGTVQLLSSEQAILESNAAIVCCARESGKLFEQYPTLKPIRGQVSWFEQHTFPFAPDQAFSYGGYCMQLHPQQLILGASFHPQRDDDEVLLEDHVHNFNLIHSVFPAYAQTLPPVEEWHGRASVRAQSPDYFPLVGQLQDHSKLFTLAGLGSKGYLFAPLNSEILVAHILGEACPVSANLLQKLNPQRFLKKVKIKKPYYSS,failed
12,MSATLKDYLNKRVVIIKVDGECLIASLNGFDKNTNLFITNVFNRISKEFICKAQLLRGSEIALVGLIDAENDDSLAPIDEKKVPMLKDTKNKIENEHVIWEKVYESKTK,failed
13,MSLIADHGFAFLVLACLFGFFMAWGVGANDVANAMGTSVGSRALTIRQAILVAMVFEFCGAYFAGGEVTETIRSGIVDPQYMTPDLLVFGMLSALLAAGVWLLLATIKGWPVSTTHSIVGAIIGFASVGVSVHAVHWGAIGPIVASWVVTPVLSGLLAFALFRSVQWLVLHAEDPFRSARRYVPLYMFLAGFMVALMTVGKGLKHVGLELSGLQTLGLALLAGGLVMGLGIVLLLRIRPTGGADPRGGFASVERVFAVLMIFTACSMAFAHGANDVANAIGPVAAVVAVVQAGGDLDLVSRSPVPSWVLLLGAVGIVIGLATYGYRVIATIGREITELTPSRGFAAELATASTVVGASAIGLPVSTTHTLVGAVLGIGMARGIGALNLRVIGSIFLSWVVTLPAGAVLAILFFLVLRALFGA,failed
14,MQDWWEADNRLADWLSMILIQRTIEKNAKQALANLGPHLDLESLIGMDMATLEEYIYPAGFYKQKSIYIKALIKWFHGHGASLDKFQTYSTEDLRKELLGIKGVGEETADAMLLYIFERNVFIADLEHHHHHH,failed
15,NGGIPHDNLVLIRMKPDENGRFGFNVKGGYDQKMPVIVSRVAPGTPADLCVPRLNEGDQVVLINGRDIAEHTHDQVVLFIKASCERHSGELMLLVRPNAVYDVVEE,not failed
16,MILTILIGAMAAIFIAFNLFEKKEKYGVVSYKTIALSVTYVILAVIVGSFLDNFNTLFQGFHDSLTAAKRY,failed
17,MMYFISDTHFYHENIINLNPEVRFKGFEIVILTNLLKVLKPEDTLYHLGDFTWHFNDKNEYLRIWKALPGRKILVMGNHDKDKESLKEYFDEIYDFYKIIEHKGKRILLSHYPAKDPITERYPDRQEMVREIYFKENCDLLIHGHVHWNREGIKCACKDYRIECINANVEWNDYKPISEREIDKLISYEKAKN,not failed
18,MASNRCAVCKILNETCAPMCIYAPHFPSNDASFKVIIQIFGAVNVCNILDNLEFPEQREIAANCLRYAAEARIRNPISGCHDMILQYKNILNNVEQDIESAVNELGTYVGHDQVPKFYDLPMPDDFLMTPVSLDSFIAKIKSLNEVQKNQLMQLPTAADNAPMIMNSIFGKMEDKNLKDGHRADGASTSAGK,failed
19,MSILTIILIVLLVILLFKVGLSILRFLISVGIVLLCIYLGYQGVLWLFEHFQNFSGFIQ,failed
20,MSDTNSGGGRQAASGPAPRGRLPFRRRVALVAVARPLIVTVGLVTAYYLLPLDERLSAGTLVSLVCGLLAVLLVFCWEVRAITRSPHPRLRAIEGLAATLVLFLVLFAGSYYLLGRSAPGSFSEPLNRTDALYFTLTTFATVGFGDITARSETGRILTMAQMTGGLLLVGVAARVLASAVQAGLHRQGRGPAASPRSGAAEEPEAGP,failed
21,MSSPSEFPLSEAPQSARKGLLPIAMVLFSFTFFTGTMFAGGKLGMAFSFVDMLWVATLGNSLLALYAAALAFIASRSGLNTVLMGRFCFGEAGSRLSDFLLGFAELGWYAWGTATVAIVLVKLLGLADGFGMPLMVLFGLGFSITAIIGFKGLDLLSRVSVPLMFVLLLVSMYIATRDAGGFAGLAAVVPHETMTFSAAVTMVFGTFASGATQATNWTRLARSGRVAVIASGVAFLLGNGLMVVAGAWCAMVYQQADIVDVMMLQGLSFAAVVMLCLNLWTIQGPTIYNVSAAACHLLRSERRRTATLVAAGVGIVLAMGGMYEMLIPFLVLLGSIIPPVGGVIMADFWYRHRGKYPPLCTANLPRYNLTGLFAYAVGAVLAYASPWVAPLVGIAASAVCYIVILELGARRRAPGQAGVEP,failed
22,MSELARLRQKVSDGLGLATPAADPADKTTRLANEEHASDVRAVALYVAISLSVGAFAAALIALAVPYAVTVVLACFFGAVLMGALFYALFGKSFPLPGTLPADYSDVRLRQTQNRSLIAEMQESMGDIVVIRNMNRRIVEANRVFREMTGCTSPEGLSCEEIGIAFRPGDRVHAYDVEIATPFGQRIFSWHDVVTRDLASSRLMISSIARDVTEERLALAEREDARLRAEKADAEKARLLATVSHEIRLPLSGMLGMNHLLSQTKLNQEQRNYLDGMKQSGQSLVQLVEDLLDYSTMEAGRFRLNPRAENLRRLIESIVEMLAHRAHEKGIEIASFVTPDVPDYLDFDPARLRQVLFNLIGNAVKFTQVGGVVIRARMVDGELQITVEDTGPGMSEAEQARIFGEFEQAGPLSQRSAGTGLGLAISARIVREFGGNLTVSSRRGEGSTFKLVFRPGRAPAEMPDSGRSHCLQHTNVLLIAPEGVAAAVTMEAIEAFGGKCILIHQPEDLDRLRNEPVSRTADLTDIIVDLRISALFRDALRDWPQQTIRRTLLVSPEERASTTHASFDAWLIRPLREKSLIDVLCGRLRGIERRDAINDNHPDVGFSSRVVERASGVEILVAEDDAVNARIIRAVLEKSGYIVRAVDNFQALQQSVASGASRLPNLIVSDLNMPGGEGLDVLPDLLGKLKDERNIPVIILSGDAGAGTAEILLKAGAGAVLAKPADPRRLVEEIRRLLEAKRVLSS,failed
23,MAYITYQQYLDLYGTCPISEEEFPVYAGLASDMIDSITRYRIVEGGGISALPSILQTLVQKAAAAQVLYFTQIGLETVLTGQAGQSFTVGKVSVSGGALSSTTTKPGALMVSPFALSLLEQTPLMERGVHVCSDRFLNPFWGILEHHHHHH,failed
